Results taken from patent publication US20240376207A1 (JIANGSU HENGRUI PHARMACEUTICALS, published 2024).

Experiments:
[1] = target: cynomolgus monkey TIGIT recombinant protein (cynomolgus monkey, UniProt A0A7N9I9V4 89-209); assay: ELISA, coated antigen
Description: (§1) A human, cynomolgus monkey, or mouse PVRIG protein (at a concentration of 1 μg/mL) was coated on a 96-well microplate at 100 μL per well, and incubated overnight at 4° C. The plate was washed three times with wash buffer at 250 μL per well. For each wash, the plate was shaken for 10 s to ensure adequate cleaning. A blocking solution (PBS+0.05% Tween20+1% BSA) was added at 300 μL/well, and the plate was incubated at room temperature for 1 h. The plate was washed three times with wash buffer at 250 μL per well. For each wash, the plate was shaken for 10 s to ensure adequate cleaning. Dilutions of the test anti-PVRIG antibodies were added at 100 μL/well. The plate was incubated at 37° C. for 1 h. The plate was washed three times with wash buffer at 250 μL per well. The […] anti-human IgG secondary antibody (Sigma, A8667) was added at 100 μL per well. The plate was incubated at 37° C. for 1 h. The plate was washed three times with wash buffer at 250 μL per well. TMB was added at 100 μL/well, and the plate was incubated in the dark for 15 min. 0.16 M sulfuric acid was added at 50 μL/well. The OD values at 450 nm were read by using a Thermo MultiSkanFc microplate reader, and the EC₅₀ values of the binding of the anti-PVRIG antibodies to PVRIG were calculated.
(§2) Similarly to Examples 4, 5 and 6, the binding of humanized anti-PVRIG/TIGIT bispecific antibodies to human and cynomolgus monkey TIGIT and blocking of binding of human TIGIT to ligand were detected, where PVRIG protein was replaced with TIGIT and PVRL2 was replaced with PVR.

[2] = target: T1, cynomolgus monkey TIGIT expressed on cells (cynomolgus monkey, UniProt A0A7N9I9V4 89-312); assay: FACS, cells overexpressing target
T1 construct: whole, on cells; also called cells overexpressing cynomolgus monkey TIGIT
T1 sequence (A0A7N9I9V4 entry or part of it): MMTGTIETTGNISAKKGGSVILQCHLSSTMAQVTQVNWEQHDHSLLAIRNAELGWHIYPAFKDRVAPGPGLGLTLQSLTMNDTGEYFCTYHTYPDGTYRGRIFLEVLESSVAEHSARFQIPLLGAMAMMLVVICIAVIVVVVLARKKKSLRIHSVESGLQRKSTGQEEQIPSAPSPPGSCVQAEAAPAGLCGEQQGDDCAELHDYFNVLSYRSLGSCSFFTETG
Description: (§3) The expression plasmid carrying human or cynomolgus monkey PVRIG gene sequence was transfected into HEK293 cells, and the over-expressing stable transfection monoclonal cell strain was obtained by antibiotic screening and infinite dilution. Overexpressing cells were seeded into a 96-well plate at 2×10⁵ cells/per well. The cells were centrifuged at 300 g for 5 min, the supernatant was then removed, 100 μL of the test antibody was added, and the mixture was incubated at 4° C. for 1 h. The mixture was centrifuged, the supernatant was removed, the plate was washed 3 times with 200 μL of wash buffer (PBS+2% FBS), and then 100 μL of an anti-human IgG secondary antibody (Invitrogen, A-11013) labeled with Alexa Fluor 488 diluted at 1:500 was added. The mixture was incubated at 4° C. for 1 h. The plate was centrifuged, and the supernatant was removed. The plate was washed 3 times with 200 μL of wash buffer (PBS+2% FBS). The cells were resuspended in 100 μL of PBS and tested on a flow cytometer (BD FACS Calibur or BD FACS Canto_II).
as §2

[3] = target: T2, mouse IgG2a Fc-tagged human PVRIG (h-PVRIG-mIgG2a Fc) recombinant protein (human, UniProt Q6DKI7 41-171, limits assumed); assay: competition ELISA; human PVRIG coated, competitor human PVRL2
T2 construct: bought from Acrobiosystems; not shown: mouse IgG2a Fc tag
T2 sequence (looked up): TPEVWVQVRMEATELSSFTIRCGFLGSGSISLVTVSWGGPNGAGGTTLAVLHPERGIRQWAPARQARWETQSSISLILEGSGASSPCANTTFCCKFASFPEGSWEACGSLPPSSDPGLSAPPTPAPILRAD
Description: The h-PVRIG-mIgG2a Fc protein (at a concentration of 1 μg/mL) was coated on the 96-well microplate at 100 μL per well, and incubated overnight at 4° C. The plate was washed three times with wash buffer at 250 μL per well. For each wash, the plate was shaken for 10 s to ensure adequate cleaning. A blocking solution was added at 300 μL/well, and the plate was incubated at room temperature for 1 h. The plate was washed three times with wash buffer at 250 μL per well. For each wash, the plate was shaken for 10 s to ensure adequate cleaning. 50 μL of diluted test anti-PVRIG antibody and 50 μL of his-tagged ligand PVRL2 were added to each well, and the plate was incubated at 37° C. for 1 h. The plate was washed three times with wash buffer at 250 μL per well. The HRP-labeled anti-his-tagged secondary antibody (Genscrpit) diluted at 1:2000 was added at 100 μL per well. The plate was incubated at 37° C. for 1 h. The plate was washed three times with wash buffer at 250 μL per well. TMB was added at 100 μL/well, and the plate was incubated in the dark for 15 min. 0.16 M sulfuric acid was added at 50 μL/well. OD values at 450 nm were measured using a Thermo MμtLtiSkanFc microplate reader, and the IC₅₀ values of the anti-PVRIG antibodies blocking the binding of PVRIG to PVRL2 were calculated.
(§4) Binding of the humanized anti-PVRIG/TIGIT bispecific antibodies to human and cynomolgus monkey PVRIG and their blocking of the ligand of human PVRIG were detected according to the methods of Examples 4, 5 and 6.

[4] = target: T3, cynomolgus monkey PVRIG expressed on cells (cynomolgus monkey, UniProt A0A2K5WVV8 1-322); assay: FACS, cells overexpressing target
T3 construct: whole, on cells; also called Monkey PVRIG FACS; cells overexpressing cynomolgus monkey PVRIG
T3 sequence: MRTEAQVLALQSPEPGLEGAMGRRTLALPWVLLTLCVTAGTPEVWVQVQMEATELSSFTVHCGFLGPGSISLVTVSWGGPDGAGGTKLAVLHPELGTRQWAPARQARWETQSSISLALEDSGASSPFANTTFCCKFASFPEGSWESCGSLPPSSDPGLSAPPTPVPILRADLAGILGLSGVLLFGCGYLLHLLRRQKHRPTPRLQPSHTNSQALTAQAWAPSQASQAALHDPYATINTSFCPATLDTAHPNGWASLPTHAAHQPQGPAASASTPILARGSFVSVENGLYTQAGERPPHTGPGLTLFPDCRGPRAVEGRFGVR
Description: as §3, §4

[5] = target: T4, human PVRIG expressed on cells (human, UniProt Q6DKI7 41-326); assay: FACS, cells overexpressing target
T4 construct: whole, on cells; also called Human PVRIG FACS; cells overexpressing human PVRIG
T4 sequence (looked up): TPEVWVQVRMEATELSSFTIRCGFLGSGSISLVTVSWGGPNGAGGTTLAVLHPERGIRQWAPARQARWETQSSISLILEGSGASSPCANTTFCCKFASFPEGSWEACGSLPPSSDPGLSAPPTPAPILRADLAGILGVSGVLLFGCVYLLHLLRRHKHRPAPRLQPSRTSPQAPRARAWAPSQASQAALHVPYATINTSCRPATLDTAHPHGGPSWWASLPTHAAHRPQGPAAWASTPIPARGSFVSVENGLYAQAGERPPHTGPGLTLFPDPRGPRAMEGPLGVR
Description: as §3, §4

[6] = target: T5, his-tagged cynomolgus monkey PVRIG (cyno-PVRIG-his) recombinant protein (cynomolgus monkey); assay: ELISA, coated antigen
T5 construct: expressed in HEK293, purified by Ni-NTA; also called Monkey PVRIG-his; cynomolgus monkey PVRIG recombinant protein
T5 chain: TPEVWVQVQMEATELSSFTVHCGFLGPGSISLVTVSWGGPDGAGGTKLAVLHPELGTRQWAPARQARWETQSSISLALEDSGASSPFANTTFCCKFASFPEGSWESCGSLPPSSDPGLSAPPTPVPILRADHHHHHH
Description: as §1, §4

[7] = target: T6, his-tagged human PVRIG (h-PVRIG-his) recombinant protein (human, UniProt Q6DKI7 41-171, limits assumed); assay: ELISA, coated antigen
T6 construct: bought from Acrobiosystems; also called Human PVRIG-his; human PVRIG recombinant protein; not shown: his tag
T6 sequence (looked up): T2 sequence (looked up)
Description: as §1, §4

[8] = target: T7, human PVRIG antigen (AcroBiosystem, PVG-H52H4) (human, UniProt Q6DKI7 41-171, limits assumed); assay: SPR (Biacore X100), antibody captured on Protein A chip, 1:1 fit
T7 sequence (looked up): T2 sequence (looked up)
Excerpt: The affinity of the humanized bispecific antibodies for human PVRIG, cynomolgus monkey PVRIG and human TIGIT was detected using Biacore. Humanized bispecific antibodies were each captured on a Protein A biosensor chip (GE lifesciences, 29127557) of a Biacore instrument (Biacore X100, GE), and then human PVRIG antigen (AcroBiosystem, PVG-H52H4), cynomolgus monkey PVRIG antigen (SEQ ID NO: 1), or human TIGIT antigen (AcroBiosystem, TIT-H52H3) at a series of concentration gradients each flowed over the chip surface. The reaction signals were detected in real time using a Biacore instrument (Biacore X100, GE) to obtain association and dissociation curves. The data obtained from the experiment were fitted using the (1:1) Binding model with the BiacoreX100 evaluation software 2.0 GE to obtain affinity values (see Table 31).

Sequence of cynomolgus monkey TIGIT recombinant protein (A0A7N9I9V4 entry or part of it): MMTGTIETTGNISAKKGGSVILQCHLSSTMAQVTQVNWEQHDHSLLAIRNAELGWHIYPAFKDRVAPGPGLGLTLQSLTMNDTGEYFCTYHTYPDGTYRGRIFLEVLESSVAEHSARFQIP

EC50 [1]: 0.119 nM | EC50 [2]: 0.012 nM | IC50 [3]: 0.598 nM | EC50 [4]: 11.5 nM | EC50 [5]: 0.043 nM | EC50 [6]: 9.44 nM | EC50 [7]: 0.679 nM | Kd [8]: 0.125 nM | koff [8]: 0.000757 s⁻¹ | kon [8]: 6.06e+06 M⁻¹ s⁻¹
B1: humanized anti-PVRIG/TIGIT bispecific antibody 1708-151H7 (bispecific antibody, human IgG4 S228P, kappa)
heavy: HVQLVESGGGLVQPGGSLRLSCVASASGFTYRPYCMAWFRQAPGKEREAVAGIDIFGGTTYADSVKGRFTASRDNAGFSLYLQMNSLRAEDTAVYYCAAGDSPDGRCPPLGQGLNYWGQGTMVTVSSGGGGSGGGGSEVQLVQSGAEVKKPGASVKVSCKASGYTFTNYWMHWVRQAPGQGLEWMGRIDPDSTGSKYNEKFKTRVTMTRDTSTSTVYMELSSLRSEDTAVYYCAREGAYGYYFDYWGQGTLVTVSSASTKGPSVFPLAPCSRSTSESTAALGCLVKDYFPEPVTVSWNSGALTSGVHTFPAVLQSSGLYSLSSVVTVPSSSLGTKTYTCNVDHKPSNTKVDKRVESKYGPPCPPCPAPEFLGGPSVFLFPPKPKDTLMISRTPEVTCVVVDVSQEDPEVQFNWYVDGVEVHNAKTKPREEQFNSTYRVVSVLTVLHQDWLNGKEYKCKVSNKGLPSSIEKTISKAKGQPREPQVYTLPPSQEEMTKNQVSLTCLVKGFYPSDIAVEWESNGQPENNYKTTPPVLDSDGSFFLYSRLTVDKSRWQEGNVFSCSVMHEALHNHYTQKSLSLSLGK
light: DIQMTQSPSSLSASVGDRVTITCRASENIYSYLAWYQQKPGKSPKLLIYNARTLAEGVPSRFSGSGSGTDFTLTISSLQPEDFATYYCQYHSGSPLPFGGGTKVEIKRTVAAPSVFIFPPSDEQLKSGTASVVCLLNNFYPREAKVQWKVDNALQSGNSQESVTEQDSKDSTYSLSSTLTLSKADYEKHKVYACEVTHQGLSSPVTKSFNRGEC
